Data as given in patent US9500651B2, “Method for identifying novel minor histocompatibility antigens” (UNIVERSITÉ DE MONTRÉAL, priority 2012, dated 2016).

biological target: T1, HLA-A*0301 (Homo sapiens, UniProt P04439); assay: MHC class I-associated peptides eluted from B-LCLs by mild acid treatment and identified by LC-MS/MS with personalized database; assay type: cell-based; conditions: EBV-transformed B-LCLs of 2 HLA-identical siblings
T1 construct: endogenous in cells; host or cells: EBV-transformed B lymphoblastoid cell lines (B-LCLs) from PBMCs of 2 HLA-identical siblings
Description: (§1) Peripheral blood mononuclear cells (PBMCs) were isolated from blood samples of 2 HLA-identical siblings. Epstein-Barr virus (EBV)-transformed B lymphoblastoid cell lines (B-LCLs) were derived from PBMCs with Ficoll-Paque™ Plus (Amersham) as described (Tosato and Cohen, 2007). Established B-LCLs were maintained in RPMI 1640 medium supplemented with 10% fetal bovine serum, 25 mM of HEPES, 2 mM L-glutamine and penicillin-streptomycin (all from Invitrogen).
(§2) Three biological replicates of 4×10^8 exponentially growing B-LCLs were prepared from each subject. MHC class I-associated peptides were released by mild acid treatment, pretreated by desalting with an HLB cartridge, filtered with a 3000 Da cut-off column and separated by cation exchange chromatography (SCX) using an off-line 1100 series binary LC system (Agilent Technologies) as previously described (Fortier et al., 2008). Peptides were loaded at 8 uL/min on a homemade strong cation exchange (SCX) column (0.3 mm internal diameter×50 mm length) packed with SCX bulk material (Polysulfoethyl A™, PolyLC). Peptides were separated into five fractions using a linear gradient of 0-25% B in 25 min (solvent A: 5 mM ammonium formate, 15% acetonitrile, ACN, pH 3.0; solvent B: 2 M ammonium formate, 15% ACN, pH 3.0) and brought to dryness using a Speedvac.
(§3) MHC class I-associated peptide fractions were resuspended in 2% aqueous ACN (0.2% formic acid) and analyzed by LC-MS/MS using an Eksigent™ LC system coupled to a LTQ-Orbitrap™ mass spectrometer (Thermo Electron) (Fortier et al., 2008; de Verteuil et al., 2010; Caron et al., 2011). Peptides were separated in a custom C18 reversed phase column (150 μm i.d.×100 mm, Jupiter Proteo™ 4 μm, Phenomenex) at a flow rate of 600 nL/min using a linear gradient of 3-60% aqueous ACN (0.2% formic acid) in 69 mins. Full mass spectra were acquired with the Orbitrap™ analyzer operated at a resolving power of 60 000 (at m/z 400) and collision-activated dissociation tandem mass spectra were acquired in data-dependent mode with the linear ion trap analyzer. Mass calibration used an internal lock mass (protonated (Si(CH3)2O))6; m/z 445.120029) and mass accuracy of peptide measurements was within 5 ppm.
(§4) Mass spectra were analyzed using Xcalibur™ software and peak lists were generated using Mascot™ distiller version 2.1.1 (Matrix Science, http://www.matrixscience.com). Database searches were performed against a non-redundant human Uniprot database (containing 110,361 sequences, released on 28, Jul. 2011) (version 101 of the UniProt Gene Ontology Annotation available from the European Bioinformatics Institute (EBI), an academic research institute located on the Wellcome Trust Genome Campus in Hinxton near Cambridge (UK), part of the European Molecular Biology Laboratory; http://www.ebi.ac.uk/Informationt; Magrane et al., Database Vol. 2011, Article ID bar009; The UniProt Consortium, Nucleic Acids Res. 2011 January; 39(Database issue): D214-D219) and databases specific for each individual (see “in silico translated transcriptome” section) using Mascot (version 2.3, Matrix Science). A Mascot search against a concatenated target/decoy database consisting of combined forward and reverse versions of the Ensembl human reference genome database and of each subject-specific database. Non-redundant peptide sequences with a cutoff score threshold above 15 were selected. The tolerances for precursor and fragment mass values were set to 0.02 and 0.05 Dalton, respectively. Searches were performed without enzyme specificity and a variable modification for oxidation (Met) and deamidation (Asn, Gln). Raw data files were converted to peptide maps comprising m/z values, charge state, retention time and intensity for all detected ions above a threshold of 8000 counts using in-house software (Proteoprofile) (Fortier et al., 2008; de Verteuil et al., 2010; Caron et al., 2011). […]

Presentation at the cell surface by MHC class I allele, presented at the cell surface:
AMYDKGPFRSK (listed as Homo sapiens) [MiHA peptide from NQO1, rs1131341, arginine allele]
AMYDKGPFWSK (listed as Homo sapiens) [MiHA peptide from NQO1, rs1131341, tryptophan allele]
RVSLPTSPG (listed as Homo sapiens) [MiHA peptide from KIAA0226L, rs1408184, glycine allele]
RVSLPTSPR (listed as Homo sapiens) [MiHA peptide from KIAA0226L, rs1408184, arginine allele]
SVLKPGNSK (listed as Homo sapiens) [MiHA peptide from ELF1, rs1056820, serine allele]
TVLKPGNSK (listed as Homo sapiens) [MiHA peptide from ELF1, rs1056820, threonine allele]
VMGNPGTFK (listed as Homo sapiens) [MiHA peptide from RMDN1, rs6980476, lysine allele]
VMGNPGTFN (listed as Homo sapiens) [MiHA peptide from RMDN1, rs6980476, asparagine allele]

biological target: HLA-B*0801 (Homo sapiens, UniProt P01889, A93T/A95T/D138N/E176V/E187T/K202T/Q94N/R180D/S35A/V36M/Y33D/Y91F); assay: as above; assay type: cell-based; conditions: EBV-transformed B-LCLs of 2 HLA-identical siblings
Description: as §1, §2, §3, §4

Presentation at the cell surface by MHC class I allele, presented at the cell surface:
ELQEKFLSL (listed as Homo sapiens) [MiHA peptide from CENPF, rs3795517, leucine allele]
ELQEKFSSL (listed as Homo sapiens) [MiHA peptide from CENPF, rs3795517, serine allele]
SLFFRKVAF (listed as Homo sapiens) [MiHA peptide from MTCH2, rs1064608, alanine allele]
SLFFRKVPF (listed as Homo sapiens) [MiHA peptide from MTCH2, rs1064608, proline allele]

biological target: HLA-B*4403 (Homo sapiens, UniProt P01889, A223V/A65T/A93T/A95T/D201E/D98Y/E176V/E187L/E204Q/E69K/G107R/H137Y/K202T/L105A/L119I/N104T/N87E/Q56L/Q94N/R106L/R155S/R180L/S101N/S121R/S35A/S48T/T118I/V36M/W191S/Y140D/Y91S); assay: as above; assay type: cell-based; conditions: EBV-transformed B-LCLs of 2 HLA-identical siblings
Description: as §1, §2, §3, §4

Presentation at the cell surface by MHC class I allele, presented at the cell surface:
QELDGVFQKL (listed as Homo sapiens) [MiHA peptide from ZWINT, rs2241666, glycine allele]
QELDRVFQKL (listed as Homo sapiens) [MiHA peptide from ZWINT, rs2241666, arginine allele]
